Activity (fold induction of GFP transcripts) data for 1 sequence are collected here from patent publication US20140128287.

The data set has as its target GEV (Gal4 DBD - estrogen receptor - VP16) (synthetic construct) (UniProt P04386). Briefly: cell_activity. The note with it: yeast reporter with three pairs of GEV sites, 15 min after beta-estradiol.

Chain of GEV (Gal4 DBD - estrogen receptor - VP16) (synthetic construct) (P04386 1-93): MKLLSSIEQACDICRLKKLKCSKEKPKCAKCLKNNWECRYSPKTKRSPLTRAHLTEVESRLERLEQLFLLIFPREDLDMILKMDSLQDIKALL

In turn, “CGGNNNNNNNNNNNCCG (double strand) [GAL1 promoter UASgal (Gal4 consensus site)]” had an activity (fold induction of GFP transcripts) of more than 50.
